Measurements reported in paper PMC6050537, “Inhibition of low-density lipoprotein receptor degradation with a cyclic peptide that disrupts the homodimerization of IDOL E3 ubiquitin ligase” (Chemical Science, 2018).
Non-standard residues stand in square brackets, D forms with d. Phe(4-NO2) = N[C@@H](Cc1ccc([N+](=O)[O-])cc1)C(=O)O; Phe(4-CN) = N#Cc1ccc(C[C@H](N)C(=O)O)cc1; Phe(4-Cl) = N[C@@H](Cc1ccc(Cl)cc1)C(=O)O; Phe(4-F) = N[C@@H](Cc1ccc(F)cc1)C(=O)O; Phe(4-Me) = Cc1ccc(C[C@H](N)C(=O)O)cc1; hPhe = N[C@@H](CCc1ccccc1)C(=O)O

Assays:
Full length IDOL (1–445) [1] = molecular target: Full length IDOL (1–445) (UniProt Q8WY64); experiment: SPR; Biacore S200; 6× His-tagged full-length IDOL immobilized on an NTA chip (~6000 RU), peptides as analytes; 10 mM HEPES, 300 mM NaCl, 1 mM TCEP, 0.05% Tween 20, 4% DMSO, pH 8.0; saturation at the highest concentrations not observed
[2] = molecular target: T1, Full length IDOL (1–445), Q8WY64; experiment: MST; conditions: modification not given; NT-647-NHS dye (only the labelled copy in the MST assays)
T1 chain: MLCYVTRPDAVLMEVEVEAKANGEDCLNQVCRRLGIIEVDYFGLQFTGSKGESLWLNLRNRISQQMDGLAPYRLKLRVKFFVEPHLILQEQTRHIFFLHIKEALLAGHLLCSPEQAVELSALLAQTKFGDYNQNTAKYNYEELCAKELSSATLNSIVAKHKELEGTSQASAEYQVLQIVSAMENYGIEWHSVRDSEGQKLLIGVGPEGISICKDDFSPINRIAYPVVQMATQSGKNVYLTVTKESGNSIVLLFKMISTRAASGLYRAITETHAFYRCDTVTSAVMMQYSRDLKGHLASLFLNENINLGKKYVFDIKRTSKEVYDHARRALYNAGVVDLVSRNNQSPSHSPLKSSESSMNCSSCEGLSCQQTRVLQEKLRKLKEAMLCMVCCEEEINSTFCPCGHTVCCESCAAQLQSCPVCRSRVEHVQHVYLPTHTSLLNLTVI

Full length IDOL (1–445) [3] = molecular target: Full length IDOL (1–445) (UniProt Q8WY64); experiment: MST; Monolith NT.115; 6× His IDOL labelled with NT-647-NHS dye at 50 nM, peptides titrated; 10 mM HEPES, 300 mM NaCl, 1 mM TCEP, 0.05% TWEEN-20, pH 8.0, 5% DMSO

A Kd (Full length IDOL (1–445) [1]) of 20.9 µM was found for CTIFLL (cyclic backbone (cyclo-)) [cyclo-CTIFLL] in this work.

A Kd [2] of 35.2 µM was found for cyclo(CF[Phe(4-F)]LYT) (not fully specified) [RINGPep1 derivative with 4-fluoro-phenylalanine at position 3] in this work.

A Kd [2] of 12 µM was found for cyclo(CF[Phe(4-Cl)]LYT) (not fully specified) [RINGPep1 derivative with 4-chloro-phenylalanine at position 3] in this work.

A Kd [2] of 36.2 µM was found for cyclo(CF[Phe(4-CN)]LYT) (not fully specified) [RINGPep1 derivative with 4-cyano-phenylalanine at position 3] in this work.

A Kd (Full length IDOL (1–445) [3]) of 38.5 µM and a Kd (Full length IDOL (1–445) [1]) of 38.5 µM were found for CFFLYT (cyclic backbone (cyclo-)) [cyclo-CFFLYT] in this work.

A Kd [2] of 23.6 µM was found for cyclo(CF[hPhe]LYT) (not fully specified) [RINGPep1 derivative with homo-phenylalanine at position 3] in this work.

A Kd [2] of 23.1 µM was found for cyclo(CF[Phe(4-Me)]LYT) (not fully specified) [RINGPep1 derivative with 4-methy-phenylalanine at position 3] in this work.

A Kd [2] of 35.7 µM was found for cyclo(CF[Phe(4-NO2)]LYT) (not fully specified) [RINGPep1 derivative with 4-nitro-phenylalanine at position 3] in this work.
